{"source": "patent US7419968B1", "about": "“Methods for treating therapy-resistant tumors” (Celmed Oncology (USA), Inc., priority 1999, dated 2008)", "proteins": {"B1": {"name": "recombinant human thymidylate synthase (rHuTS) (Homo sapiens) (protein)", "chain": "MPVAGSELPRRPLPPAAQERDAEPRPPHGELQYLGQIQHILRCGVRKDDRTGTGTLSVFGMQARYSLRDEFPLLTTKRVFWKGVLEELLWFIKGSTNAKELSSKGVKIWDANGSRDFLDSLGFSTREEGDLGPVYGFQWRHFGAEYRDMESDYSGQGVDQLQRVIDTIKTNPDDRRIIMCAWNPRDLPLMALPPCHALCQFYVVNSELSCQLYQRSGDMGLGVPFNIASYALLTYMIAHITGLKPGDFIHTLGDAHIYLNHIEPLKIQLQREPRPFPKLRILRKVEKIDDFKAEDFQIEGYNPHPTIKMEMAV", "notes": "His tag (N); made in house; host or cells: E. coli BL21 (DE3), pET-28a(+)"}}, "substrate": "O=c1[nH]c(=O)n([C@H]2C[C@H](O)[C@@H](COP(=O)(O)O)O2)cc1/C=C/Br", "assay": "Enzyme kinetics of rHuTS with dUMP and BVdUMP", "assay_type": "biochemical, human", "settings": "other: rHuTS; 37.0 °C", "method": "L. Enzyme Preparation. Cloned human thymidylate synthase plasmid pBCHTS was subcloned into E. coli. BL21 (DE3)/pET-28a(+) (Novagen) using the NdeI ñSacI insertion site, in order to add an amino terminal His tag. […] M. Enzyme Assays and Kinetic Measurements. […] Tetrahydrofolate stock solutions were prepared by dissolving tetrahydrofolic acid (Sigma) directly into 0.2 M Tris pH 7.5, 0.5 M-mercaptoethanol; stock solutions were stored at -80° C. […] N5, N10-methylene tetrahydrofolate was kept on ice and used within 2 hours of preparation. […] The catalytic efficiency of the enzyme (Kcat/Km) was calculated from the kinetic constants Km and Vmax.", "data": [{"protein": "B1", "values": [{"measurement": "Km", "value": 16, "unit": "μM μM"}]}]}
